Test results published in patent publication US20260243780A1.

Tests used:
[1] = biological target: SLC3A2, as used in the SPR measurement; assay: SPR, concentration gradient binding curves
[2] = biological target: transferrin receptor protein 1 (TFRC), as used in the SPR measurement; assay: SPR, concentration gradient binding curves

Kd [1]: 35.2 nM | Kd [2]: 571 nM
Substance: Cf48 small peptide (C4orf48), as used in the SPR measurement
